Measured values as given in patent EP1177203B1.

Columns and labels:
[1] = biological target: Collagen type I (Sigma), immobilized; assay: adherence assay; 37°C-grown MC02152 cells on CI-coated wells
[2] = biological target: Mouse laminin (isolated from the EHS-sarcoma, Life Technologies) (mouse) (UniProt P19137); assay: adherence assay; 37°C-grown MC02152 cells on LN-coated wells
[3] = biological target: Collagen type I (Sigma), immobilized; assay: adherence assay; 46°C-grown MC02152 cells on CI-coated wells
[4] = biological target: Mouse laminin (isolated from the EHS-sarcoma, Life Technologies) (mouse) (UniProt P19137); assay: adherence assay; 46°C-grown MC02152 cells on LN-coated wells
Collagen type IV (Sigma) [5] = assay: adherence assay; 37°C-grown MC02152 cells on CIV-coated wells
Collagen type IV (Sigma) [6] = assay: adherence assay; 46°C-grown MC02152 cells on CIV-coated wells
[7] = biological target: Collagen type I (Sigma), immobilized; assay: adherence assay; MC02152 cells (46°C) on CI-coated wells; no IgG
[8] = biological target: Mouse laminin (isolated from the EHS-sarcoma, Life Technologies) (mouse) (UniProt P19137); assay: adherence assay; MC02152 cells (46°C) on LN-coated wells; no IgG
Collagen type IV (Sigma) [9] = assay: adherence assay; MC02152 cells (46°C) on CIV-coated wells; no IgG
[10] = biological target: Bovine serum albumin (bovine) (UniProt P02769); assay: adherence assay; MC02152 cells (46°C) on BSA-coated wells (negative control); no IgG
[11] = biological target: Collagen type I (Sigma), immobilized; assay: adherence assay, 46°C-grown cells on CI-coated wells
[12] = biological target: Mouse laminin (isolated from the EHS-sarcoma, Life Technologies) (mouse) (UniProt P19137); assay: adherence assay, 46°C-grown cells on LN-coated wells
Collagen type IV (Sigma) [13] = assay: adherence assay, 46°C-grown cells on CIV-coated wells
[14] = biological target: Collagen type I (Sigma), immobilized; assay: adherence assay; OG1RF cells (46°C) on CI-coated wells; no IgG
[15] = biological target: Mouse laminin (isolated from the EHS-sarcoma, Life Technologies) (mouse) (UniProt P19137); assay: adherence assay; OG1RF cells (46°C) on LN-coated wells; no IgG
[16] = biological target: Collagen type I (Sigma), immobilized; assay: adherence assay; OG1RF cells (46°C) on CI-coated wells; no IgG; remark: listed apart in the source
[17] = biological target: Mouse laminin (isolated from the EHS-sarcoma, Life Technologies) (mouse) (UniProt P19137); assay: adherence assay; OG1RF cells (46°C) on LN-coated wells; no IgG; remark: listed apart in the source
Collagen type IV (Sigma) [18] = assay: adherence assay; OG1RF cells (46°C) on CIV-coated wells; no IgG
Collagen type IV (Sigma) [19] = assay: as above; remark: listed apart in the source
[20] = biological target: Bovine serum albumin (bovine) (UniProt P02769); assay: adherence assay; OG1RF cells (46°C) on BSA-coated wells (negative control); no IgG
[21] = biological target: Bovine serum albumin (bovine) (UniProt P02769); assay: as above; remark: listed apart in the source
[22] = biological target: Collagen type I (Sigma), immobilized; assay: adherence assay, 35S-labelled 46°C-grown OG1RF cells on CI-coated wells (3.3% is the ace mutant TX5256)
[23] = biological target: Collagen type I (Sigma), immobilized; assay: adherence assay; V583 cells (46°C) on CI-coated wells; no IgG
[24] = biological target: Mouse laminin (isolated from the EHS-sarcoma, Life Technologies) (mouse) (UniProt P19137); assay: adherence assay; V583 cells (46°C) on LN-coated wells; no IgG
Collagen type IV (Sigma) [25] = assay: adherence assay; V583 cells (46°C) on CIV-coated wells; no IgG
[26] = biological target: Bovine serum albumin (bovine) (UniProt P02769); assay: adherence assay; V583 cells (46°C) on BSA-coated wells (negative control); no IgG
[27] = biological target: Bovine Type I collagen (Collagen Corp.), immobilized on a CM5 sensor chip (bovine) (UniProt P02453); assay: SPR (BIAcore 1000), Scatchard analysis of equilibrium responses, 1-70 µM Ace A over immobilised collagen; three measurements
UniProt P02453, sequence (P02453 162-1217, chain 1 of 2): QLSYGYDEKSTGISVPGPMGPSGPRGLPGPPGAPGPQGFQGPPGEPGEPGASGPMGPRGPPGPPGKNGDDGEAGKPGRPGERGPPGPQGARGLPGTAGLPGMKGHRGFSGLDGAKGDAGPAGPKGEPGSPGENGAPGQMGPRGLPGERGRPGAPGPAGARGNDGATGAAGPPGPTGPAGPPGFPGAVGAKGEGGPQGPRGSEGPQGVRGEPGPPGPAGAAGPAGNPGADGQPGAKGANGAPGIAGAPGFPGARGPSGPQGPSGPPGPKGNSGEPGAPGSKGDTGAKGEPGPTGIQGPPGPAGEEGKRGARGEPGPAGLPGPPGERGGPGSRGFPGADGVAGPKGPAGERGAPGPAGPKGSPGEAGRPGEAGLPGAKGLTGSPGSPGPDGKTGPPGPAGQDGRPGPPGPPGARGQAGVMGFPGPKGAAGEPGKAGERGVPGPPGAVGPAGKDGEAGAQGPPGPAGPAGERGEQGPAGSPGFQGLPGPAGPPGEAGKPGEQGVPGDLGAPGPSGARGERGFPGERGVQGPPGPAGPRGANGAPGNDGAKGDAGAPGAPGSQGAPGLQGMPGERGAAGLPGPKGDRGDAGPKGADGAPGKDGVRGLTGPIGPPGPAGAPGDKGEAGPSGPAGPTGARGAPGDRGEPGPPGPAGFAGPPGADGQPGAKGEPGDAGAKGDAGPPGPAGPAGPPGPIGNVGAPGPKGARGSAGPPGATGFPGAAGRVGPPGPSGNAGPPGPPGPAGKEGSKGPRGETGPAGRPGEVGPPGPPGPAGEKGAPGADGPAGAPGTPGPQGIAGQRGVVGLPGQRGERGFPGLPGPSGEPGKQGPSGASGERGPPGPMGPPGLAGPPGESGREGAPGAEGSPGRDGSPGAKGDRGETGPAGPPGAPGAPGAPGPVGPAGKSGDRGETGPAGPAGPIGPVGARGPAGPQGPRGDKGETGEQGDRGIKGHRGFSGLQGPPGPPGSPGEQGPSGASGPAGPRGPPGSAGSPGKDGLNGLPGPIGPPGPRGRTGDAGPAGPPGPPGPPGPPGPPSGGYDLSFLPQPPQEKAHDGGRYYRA
UniProt P02453, sequence (P02465 80-1117, chain 2 of 2, further chain): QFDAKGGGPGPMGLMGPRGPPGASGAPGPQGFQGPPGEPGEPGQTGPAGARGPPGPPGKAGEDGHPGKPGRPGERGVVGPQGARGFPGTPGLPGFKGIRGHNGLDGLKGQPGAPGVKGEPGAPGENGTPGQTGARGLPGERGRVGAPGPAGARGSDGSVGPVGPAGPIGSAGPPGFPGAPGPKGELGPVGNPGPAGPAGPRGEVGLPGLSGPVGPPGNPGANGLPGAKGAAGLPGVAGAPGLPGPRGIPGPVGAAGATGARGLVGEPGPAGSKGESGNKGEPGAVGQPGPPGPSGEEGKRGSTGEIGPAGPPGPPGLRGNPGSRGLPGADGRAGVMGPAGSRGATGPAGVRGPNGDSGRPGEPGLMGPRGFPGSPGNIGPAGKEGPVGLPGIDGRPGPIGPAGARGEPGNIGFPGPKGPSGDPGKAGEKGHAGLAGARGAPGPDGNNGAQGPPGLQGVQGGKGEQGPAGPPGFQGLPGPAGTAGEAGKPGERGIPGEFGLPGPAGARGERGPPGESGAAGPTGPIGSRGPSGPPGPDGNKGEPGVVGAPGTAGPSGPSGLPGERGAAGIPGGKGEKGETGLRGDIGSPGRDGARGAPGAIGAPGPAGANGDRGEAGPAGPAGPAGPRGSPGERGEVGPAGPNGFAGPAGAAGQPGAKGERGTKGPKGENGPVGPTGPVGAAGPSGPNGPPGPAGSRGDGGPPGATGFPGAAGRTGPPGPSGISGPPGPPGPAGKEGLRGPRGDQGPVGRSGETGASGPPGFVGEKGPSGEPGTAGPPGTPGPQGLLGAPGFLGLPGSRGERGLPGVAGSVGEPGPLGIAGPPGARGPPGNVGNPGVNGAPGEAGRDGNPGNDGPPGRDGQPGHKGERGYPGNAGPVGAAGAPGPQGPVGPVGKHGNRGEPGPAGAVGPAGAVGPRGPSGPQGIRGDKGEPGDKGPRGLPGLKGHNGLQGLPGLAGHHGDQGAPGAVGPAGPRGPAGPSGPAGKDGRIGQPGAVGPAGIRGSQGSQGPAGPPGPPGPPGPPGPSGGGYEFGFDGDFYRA

UniProt P02769, sequence (P02769 25-607 limits assumed): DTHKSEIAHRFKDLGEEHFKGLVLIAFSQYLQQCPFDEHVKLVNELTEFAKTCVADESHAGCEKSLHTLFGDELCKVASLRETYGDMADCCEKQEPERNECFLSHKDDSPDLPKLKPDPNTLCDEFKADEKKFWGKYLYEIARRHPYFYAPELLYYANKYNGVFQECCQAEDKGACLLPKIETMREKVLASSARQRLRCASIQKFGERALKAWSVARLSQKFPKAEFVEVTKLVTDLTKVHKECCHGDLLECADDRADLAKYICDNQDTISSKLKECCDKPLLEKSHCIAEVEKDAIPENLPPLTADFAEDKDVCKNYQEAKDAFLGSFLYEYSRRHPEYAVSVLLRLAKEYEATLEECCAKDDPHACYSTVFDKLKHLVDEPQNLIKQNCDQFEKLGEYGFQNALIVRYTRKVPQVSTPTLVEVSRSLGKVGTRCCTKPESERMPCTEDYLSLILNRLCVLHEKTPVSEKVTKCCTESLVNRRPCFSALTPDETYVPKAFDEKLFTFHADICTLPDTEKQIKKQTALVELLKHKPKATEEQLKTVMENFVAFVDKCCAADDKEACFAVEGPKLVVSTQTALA

## Ace protein of E. faecalis strain MC02152 (native; on cells or in mutanolysin extract)
[1]
  % of cells bound: 6%
[2]
  % of cells bound: 7.1%
[3]
  % of cells bound: 29%
[4]
  % of cells bound: 41%
Collagen type IV (Sigma) [5]
  % of cells bound: 8.9%
Collagen type IV (Sigma) [6]
  % of cells bound: 38%
[7]
  % of cells bound: 26%
[8]
  % of cells bound: 26.7%
Collagen type IV (Sigma) [9]
  % of cells bound: 27.7%
[10]
  % of cells bound: 0.6%

## Ace protein of E. faecalis strain OG1RF (native; on 46°C-grown cells or in mutanolysin-PMSF extracts)
[11]
  fold decrease in percentage of binding, ace mutant TX5256 against OG1RF: 6.5 fold
[12]
  fold decrease in adherence, ace mutant TX5256 against OG1RF: 32.9 fold
Collagen type IV (Sigma) [13]
  fold decrease in adherence, ace mutant TX5256 against OG1RF: 27.4 fold
[14]
  % of cells bound: 24.6%
[15]
  % of cells bound: 32%
[16]
  % of cells bound: 25.6%
[17]
  % of cells bound: 31.9%
Collagen type IV (Sigma) [18]
  % of cells bound: 29.6%
Collagen type IV (Sigma) [19]
  % of cells bound: 27.7%
[20]
  % of cells bound: 0.9%
[21]
  % of cells bound: 0.6%
[22]
  % of cells bound: 21.1%

## Ace protein of E. faecalis strain V583 (native; on 46°C-grown cells or in mutanolysin extract)
[23]
  % of cells bound: 29.2%
[24]
  % of cells bound: 29.4%
Collagen type IV (Sigma) [25]
  % of cells bound: 38.1%
[26]
  % of cells bound: 0.7%

## Recombinant E. faecalis EF1 Ace A domain (N-terminal His6-tag fusion protein)
[27]
  Kd: 48 µM
